Laboratory results: article doi:10.1101/2020.12.21.423144 (bioRxiv, 2020)
Entries after “also recorded” stand apart in the source; their conditions may differ.

B1: human adenosine A2A receptor, full-length wild type (receptor)
chain: MPIMGSSVYITVELAIAVLAILGNVLVCWAVWLNSNLQNVTNYFVVSLAAADIAVGVLAIPFAITISTGFCAACHGCLFIACFVLVLTQSSIFSLLAIAIDRYIAIRIPLRYNGLVTGTRAKGIIAICWVLSFAIGLTPMLGWNNCGQPKEGKNHSQGCGEGQVACLFEDVVPMNYMVYFNFFACVLVPLLLMLGVYLRIFLAARRQLKQMESQPLPGERARSTLQKEVHAAKSLAIIVGLFALCWLPLHIINCFTFFCPDCSHAPLWLMYLAIVLSHTNSVVNPFIYAYRIREFRQTFRKIIRSHVLRQQEPFKAAGTSARVLAAHGSDGEQVSLRLNGHPPGVWANGSAPHPERRPNGYALGLVSGGSAQESQGNTGLPDVELLSHELKGVCPEPPGLDDPLAQDGAGVS
B2: A2AR-N359ΔC with the ERR:AAA mutations (domain or fragment)
chain: MPIMGSSVYITVELAIAVLAILGNVLVCWAVWLNSNLQNVTNYFVVSLAAADIAVGVLAIPFAITISTGFCAACHGCLFIACFVLVLTQSSIFSLLAIAIDRYIAIRIPLRYNGLVTGTRAKGIIAICWVLSFAIGLTPMLGWNNCGQPKEGKNHSQGCGEGQVACLFEDVVPMNYMVYFNFFACVLVPLLLMLGVYLRIFLAARRQLKQMESQPLPGERARSTLQKEVHAAKSLAIIVGLFALCWLPLHIINCFTFFCPDCSHAPLWLMYLAIVLSHTNSVVNPFIYAYRIREFRQTFRKIIRSHVLRQQEPFKAAGTSARVLAAHGSDGEQVSLRLNGHPPGVWANGSAPHPAAAPN

Columns and labels:
[1] = molecular target: P29274; test: SEC
[2] = molecular target: the molecule itself; test: SDS-PAGE and Western blot densitometry
[3] = molecular target: the molecule itself; test: SEC

Protein | HMW oligomer level (relative to monomer) [1] | total oligomer level (HMW oligomer and dimer, relative to monomer) [1] | dimer level (relative to monomer), with 5 mM TCEP [2] | dimer level (relative to monomer), without TCEP [2] | dimer level (relative to monomer) [3]
B1 | ctrl: 0.88 | ctrl: 1.37; also recorded: WT: 1.34 | 0.51 arbitrary units | 1.14 arbitrary units | 
B2 | ERR:AAA: 0.38 | ERR:AAA: 0.85 |  |  | 0.48 arbitrary units
